Here are results for two molecules from PMC4135234.

Read-outs that look alike come from different tables or passages of the source.

Series [1] concerns the target GST-FLAG-p53 (human, UniProt P04637 1-393). As to the kind of experiment: fluorescence polarization. Background: Fluorescence polarisation rises when a labelled molecule tumbles more slowly, as on binding a larger partner.
In series [2] the target is T1, GST-FLAG-MSI2 (human, UniProt Q96DH6 1-328). Description: competition.
The target in series [3] is GST-FLAG-MSI1 (human, UniProt O43347 1-362). As to the kind of experiment: competition.
Series [4] has as its target T2, GST-FLAG-LIN28A (human, UniProt Q9H9Z2 1-209).
T2 sequence: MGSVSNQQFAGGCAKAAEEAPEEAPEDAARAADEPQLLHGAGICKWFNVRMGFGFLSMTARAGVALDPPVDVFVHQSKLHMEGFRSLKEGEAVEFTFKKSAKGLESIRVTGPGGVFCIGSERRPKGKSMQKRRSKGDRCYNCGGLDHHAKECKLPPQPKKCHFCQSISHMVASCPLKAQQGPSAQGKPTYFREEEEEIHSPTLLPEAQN
As to the kind of experiment: competition.

The target in series [5] is T1, GST-FLAG-MSI2. As to the kind of experiment: competition. The source holds these as a separate data set.

As a reminder, the IC50 is the concentration that inhibits the measured activity by half. Low values mean higher potency, high ones lower potency.

T1 sequence (Q96DH6 whole entry): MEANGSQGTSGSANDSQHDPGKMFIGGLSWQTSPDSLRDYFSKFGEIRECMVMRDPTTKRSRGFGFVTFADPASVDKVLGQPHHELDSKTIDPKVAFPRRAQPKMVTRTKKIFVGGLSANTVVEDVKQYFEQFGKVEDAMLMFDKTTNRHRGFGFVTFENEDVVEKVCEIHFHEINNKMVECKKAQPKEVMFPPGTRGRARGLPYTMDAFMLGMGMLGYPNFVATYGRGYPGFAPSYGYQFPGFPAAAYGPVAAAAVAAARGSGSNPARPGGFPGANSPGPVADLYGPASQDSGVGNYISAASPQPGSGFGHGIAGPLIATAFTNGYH
Chain of GST-FLAG-MSI1 (O43347 whole entry): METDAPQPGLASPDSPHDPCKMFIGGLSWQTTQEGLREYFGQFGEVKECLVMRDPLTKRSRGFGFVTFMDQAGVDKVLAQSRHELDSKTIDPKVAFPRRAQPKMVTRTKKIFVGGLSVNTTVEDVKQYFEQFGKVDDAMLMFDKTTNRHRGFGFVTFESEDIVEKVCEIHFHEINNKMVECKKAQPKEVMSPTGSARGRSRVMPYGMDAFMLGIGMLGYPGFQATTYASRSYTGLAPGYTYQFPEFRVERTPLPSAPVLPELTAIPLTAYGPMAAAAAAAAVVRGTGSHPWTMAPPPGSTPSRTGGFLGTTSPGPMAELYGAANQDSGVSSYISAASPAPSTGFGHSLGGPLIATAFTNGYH
Chain of GST-FLAG-p53 (P04637 whole entry): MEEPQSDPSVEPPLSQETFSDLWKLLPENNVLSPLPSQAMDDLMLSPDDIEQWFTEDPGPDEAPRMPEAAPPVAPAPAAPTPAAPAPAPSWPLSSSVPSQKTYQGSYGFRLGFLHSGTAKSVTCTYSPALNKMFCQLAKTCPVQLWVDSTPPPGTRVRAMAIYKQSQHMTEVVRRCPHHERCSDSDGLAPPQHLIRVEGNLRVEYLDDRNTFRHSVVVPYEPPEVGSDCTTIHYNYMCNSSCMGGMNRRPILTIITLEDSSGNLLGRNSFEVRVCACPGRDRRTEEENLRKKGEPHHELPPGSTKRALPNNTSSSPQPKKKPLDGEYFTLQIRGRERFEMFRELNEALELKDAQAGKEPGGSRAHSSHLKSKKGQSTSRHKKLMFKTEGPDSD

As for GUAGUAGU (ssRNA, 5' C9 spacer) [MSI FP oligo (Cy3-C9-Oligo #5)], the binding result in series [1] is “no binding”.
For the molecule GUAGUAGU (ssRNA) [MSI Oligo #5 (unlabeled MSI FP oligo)], the IC50 was found to be 4600 nM in series [2], 5600 nM in series [3], 500 nM in series [4] and 1300 ± 200 nM in series [5].
